Source: patent publication US6891027

Columns and labels:
[1] = target: transgenic membrane IgM and IgD specific for HEL on mouse B cells; assay: cell-based or functional assay
[2] = target: transgenic membrane IgM and IgD specific for HEL on mouse B cells; assay: transgenic B cells incubated with 3 nM protein for 10 min, free sites read by subsequent binding of fluorescein-conjugated HEL
[3] = target: CD21 on mouse B cells (mouse) (UniProt P19070); assay: cell-based or functional assay
[4] = target: CD21 on Raji B lymphoblastoid cells (human) (UniProt P20023); assay: 50% inhibition of specific binding of [125I]HEL-C3d2 to Raji cells expressing CD21; two experiments
Sequence of CD21 on Raji B lymphoblastoid cells (human) (P20023 21-1033): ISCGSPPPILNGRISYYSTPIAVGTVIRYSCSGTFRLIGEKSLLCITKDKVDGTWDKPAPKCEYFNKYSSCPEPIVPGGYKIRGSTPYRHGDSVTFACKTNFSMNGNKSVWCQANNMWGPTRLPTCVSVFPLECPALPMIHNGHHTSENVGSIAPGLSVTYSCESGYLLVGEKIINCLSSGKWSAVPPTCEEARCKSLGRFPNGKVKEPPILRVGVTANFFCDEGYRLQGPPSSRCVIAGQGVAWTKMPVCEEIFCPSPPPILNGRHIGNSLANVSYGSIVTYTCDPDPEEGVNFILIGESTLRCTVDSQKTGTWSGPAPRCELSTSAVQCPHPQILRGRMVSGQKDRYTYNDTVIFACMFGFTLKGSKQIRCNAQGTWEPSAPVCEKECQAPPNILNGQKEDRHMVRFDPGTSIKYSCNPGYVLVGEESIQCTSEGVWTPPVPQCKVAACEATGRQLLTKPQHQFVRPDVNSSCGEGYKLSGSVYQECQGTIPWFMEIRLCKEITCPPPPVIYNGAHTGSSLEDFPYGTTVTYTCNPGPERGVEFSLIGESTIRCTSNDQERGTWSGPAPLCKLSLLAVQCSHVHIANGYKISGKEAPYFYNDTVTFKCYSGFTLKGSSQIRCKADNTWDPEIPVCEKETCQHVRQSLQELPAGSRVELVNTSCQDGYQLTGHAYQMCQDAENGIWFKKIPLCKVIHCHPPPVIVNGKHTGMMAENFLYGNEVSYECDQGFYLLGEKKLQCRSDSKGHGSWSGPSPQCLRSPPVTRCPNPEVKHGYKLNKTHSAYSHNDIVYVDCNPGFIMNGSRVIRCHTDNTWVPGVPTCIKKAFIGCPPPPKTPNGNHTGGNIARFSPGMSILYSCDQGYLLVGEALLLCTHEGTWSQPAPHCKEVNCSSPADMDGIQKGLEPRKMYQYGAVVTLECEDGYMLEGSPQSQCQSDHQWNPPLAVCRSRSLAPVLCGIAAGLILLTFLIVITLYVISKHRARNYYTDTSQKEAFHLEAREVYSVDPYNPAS

Sequence of CD21 on mouse B cells (mouse) (P19070 12-1025): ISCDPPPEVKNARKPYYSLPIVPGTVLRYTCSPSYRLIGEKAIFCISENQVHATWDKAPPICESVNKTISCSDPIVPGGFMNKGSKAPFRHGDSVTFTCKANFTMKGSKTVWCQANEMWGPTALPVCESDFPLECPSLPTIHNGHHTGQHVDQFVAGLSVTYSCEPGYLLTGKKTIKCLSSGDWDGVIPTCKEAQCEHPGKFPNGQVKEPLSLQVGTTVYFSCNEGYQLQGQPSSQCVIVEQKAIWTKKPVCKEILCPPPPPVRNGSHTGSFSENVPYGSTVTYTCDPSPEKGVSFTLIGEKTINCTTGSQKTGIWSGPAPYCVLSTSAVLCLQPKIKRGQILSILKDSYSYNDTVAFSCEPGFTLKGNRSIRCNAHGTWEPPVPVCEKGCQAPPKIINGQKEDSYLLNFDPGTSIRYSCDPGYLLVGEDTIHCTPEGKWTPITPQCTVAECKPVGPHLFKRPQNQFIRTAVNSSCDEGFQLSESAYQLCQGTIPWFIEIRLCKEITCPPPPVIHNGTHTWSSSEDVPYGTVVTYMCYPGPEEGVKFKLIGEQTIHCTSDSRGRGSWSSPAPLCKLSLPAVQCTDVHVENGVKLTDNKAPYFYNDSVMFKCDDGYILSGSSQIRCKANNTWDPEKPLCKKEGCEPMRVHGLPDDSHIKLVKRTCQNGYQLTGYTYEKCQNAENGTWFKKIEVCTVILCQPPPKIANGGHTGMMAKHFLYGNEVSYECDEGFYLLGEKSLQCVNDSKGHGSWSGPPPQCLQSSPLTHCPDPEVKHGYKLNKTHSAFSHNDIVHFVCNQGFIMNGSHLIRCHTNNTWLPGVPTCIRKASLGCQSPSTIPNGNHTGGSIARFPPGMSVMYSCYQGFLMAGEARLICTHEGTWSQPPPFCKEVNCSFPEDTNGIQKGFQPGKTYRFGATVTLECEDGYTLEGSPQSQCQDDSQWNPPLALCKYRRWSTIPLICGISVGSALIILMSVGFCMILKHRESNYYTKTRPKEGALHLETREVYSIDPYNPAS

threshold for increase in [Ca2+]i in HEL-specific B cells (nM (printed as '7 n')) [1]	% saturation of the anti-HEL sites [2]	threshold for increase in [Ca2+]i in HEL-specific B cells [3]	IC50 [4]	Substance
7	51%			recombinant hen egg lysozyme with YL1/2 epitope tag (HEL.YL) (from UniProt P00698 19-147)
		0.7 nM		HEL-C3d recombinant fusion protein (hen egg lysozyme fused to one murine C3d) (from UniProt P00698 19-147; P01027 1006-1302)
	47%	0.007 nM		HEL-C3d3 recombinant fusion protein (hen egg lysozyme fused to three murine C3d) (from UniProt P00698 19-147; P01027 1006-1302; P01027 1006-1302; P01027 1006-1302)
		0.07 nM	8 to 20 nM	HEL-C3d2 recombinant fusion protein (hen egg lysozyme fused to two murine C3d) (from UniProt P00698 19-147; P01027 1006-1302; P01027 1006-1302)
